Reference: the supplement of paper PMC7877785
± gives the uncertainty stated by the source.

Experiment: self-splicing fitness, log relative to wild type (ln ratio); higher = more splicing; Tetrahymena group I intron in knt gene, E. coli kanamycin selection, DiMSum; sequences stand for … in CUCUCU…GGAGGGAAAAGUUAUCAGGCAUGCACCUGGUAGCUAGUCUUUAAACCAAUAGAUUGCAUCGGUUUAAAAGGCAAGACCGUCAAAUUGCGGGAAAGGGGUCAACAGCCGUUCAGUACCAAGUCUCAGGGGAAACUUUGAGAUGGCCUUGCAAAGGGUAUGGUAAUAAGCUGACGGACAUGGUCCUAACCACGCAGCCAAGUCCUAAGUCAACAGAUCUUCUGUUGAUAUGGAUGCAGUUCACAGACUAAAUGUCGGUCGGGGAAGAUGUAUUCUUCUCAUAAGAUAUAGUCGGACCUCUCCUUAAUGGGAGCUAGCGGAUGAAGUGAUGCAACACUGGAGCCGCUGGGAACUAAUUUGUAUGCGAAAGUAUAUUGAUUAGUUUUGGAGUACUCGUGGUCG
Procedure, shortened: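 The eight P1ex-region nucleotides of an intron in the knt kanamycin-resistance gene on pET-22b(+) were all randomised and the library put into E. coli BL21(DE3). Six replicate transformations were grown overnight at 37°C or 30°C on LB agar with or without 25 μg/mL kanamycin, together with 100 μg/mL carbenicillin, 50 μM IPTG and 0.2% rhamnose. Colonies were pooled and amplicon-sequenced on an Illumina HiSeq 2500. Fitness from DiMSum is the error-weighted combination of wild-type-normalised replicate fold changes, kanamycin over none.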

| Sequence | self-splicing fitness (ln) (30 °C) | self-splicing fitness (ln) (37 °C) |
| --- | --- | --- |
| CGUGAGCAAUAUUACGGGGG | -2.65 ± 0.29 | -3.28 ± 0.37 |
| GCAGAGCAAUAUUACGACAG | -3.01 ± 0.15 | -2.74 ± 0.26 |
| CCGAAGCAAUAUUACGGGUG | -0.732 ± 0.047 | -0.639 ± 0.061 |
| CAAGAGCAAUAUUACGCAGU | -4 ± 0.46 |  |
| UGCAAGCAAUAUUACGUUCG | -0.427 ± 0.048 | -0.226 ± 0.067 |
| AAGAAGCAAUAUUACGUCCA | -0.641 ± 0.13 | 0.0432 ± 0.14 |
| CUGAAGCAAUAUUACGCGAC | -1.46 ± 0.086 | -1.14 ± 0.1 |
| AUGCAGCAAUAUUACGCAAA | -2.6 ± 0.13 | -0.0469 ± 0.14 |
| CGCAAGCAAUAUUACGUCGU | -3.27 ± 0.13 | -2.2 ± 0.1 |
| AUGUAGCAAUAUUACGGACG | -3.24 ± 0.2 | -1.09 ± 0.13 |
| AUUUAGCAAUAUUACGGAGC | -3.49 ± 0.45 |  |
| GCAGAGCAAUAUUACGAGUA | -3.23 ± 0.5 | -1.35 ± 0.43 |
| GUGUAGCAAUAUUACGGGCA | -0.665 ± 0.18 | -1.29 ± 0.19 |
| UGCUAGCAAUAUUACGGUAA | -1.03 ± 0.15 | -1.47 ± 0.12 |
| GAAUAGCAAUAUUACGGUGU | -3 ± 0.13 | -1.58 ± 0.14 |
| ACCGAGCAAUAUUACGCUCG | -3.22 ± 0.32 | -1.61 ± 0.2 |
| GCAGAGCAAUAUUACGAUCA | -4.02 ± 0.42 | -1.94 ± 0.18 |
| CGACAGCAAUAUUACGAUCC | -0.0657 ± 0.16 | -0.196 ± 0.19 |
| GGUUAGCAAUAUUACGAUCU | -1.04 ± 0.24 | -0.76 ± 0.24 |

| Sequence | self-splicing fitness (ln) (30 °C) | self-splicing fitness (ln) (37 °C) |
| --- | --- | --- |
| UAAUAGCAAUAUUACGCUAU | -2.93 ± 0.19 | -1.85 ± 0.21 |
| GGAUAGCAAUAUUACGGUGC | -1.85 ± 0.48 | -2.5 ± 0.49 |
| UGGUAGCAAUAUUACGCACA | -0.0584 ± 0.068 | 0.436 ± 0.074 |
| GAGCAGCAAUAUUACGUGAA | -0.549 ± 0.079 | -0.526 ± 0.13 |
| ACGCAGCAAUAUUACGGUCU | -0.587 ± 0.049 | 0.0141 ± 0.056 |
| CAGUAGCAAUAUUACGAAAU | -2.86 ± 0.15 | -2.54 ± 0.21 |
| AACUAGCAAUAUUACGCUGC | -2.59 ± 0.14 | -2.29 ± 0.18 |
| GAUCAGCAAUAUUACGUCAU | -1.53 ± 0.094 | -0.393 ± 0.1 |
| UCUAAGCAAUAUUACGAGUU | -2.94 ± 0.2 | -3.27 ± 0.28 |
| CGCGAGCAAUAUUACGGAUG | -2.25 ± 0.17 | -0.671 ± 0.12 |
| ACUAAGCAAUAUUACGUGUG | -2.18 ± 0.07 | -1.06 ± 0.076 |
| UGCUAGCAAUAUUACGCCUA | -0.454 ± 0.15 | -0.0492 ± 0.15 |
| CUUAAGCAAUAUUACGUAAG | -2.83 ± 0.1 | -1.27 ± 0.098 |
| CGAUAGCAAUAUUACGGACA | -2.4 ± 0.28 | -0.977 ± 0.16 |
| AUUUAGCAAUAUUACGAUCA | -1.08 ± 0.19 | 0.104 ± 0.16 |
| GUUCAGCAAUAUUACGUAUG | -2.03 ± 0.1 | -0.968 ± 0.099 |
| GUAGAGCAAUAUUACGGCUG | -1.04 ± 0.13 | -0.584 ± 0.14 |
| UUCCAGCAAUAUUACGCCGU | -2.53 ± 0.16 | -1.43 ± 0.23 |
| GCCGAGCAAUAUUACGCCCG | -2.68 ± 0.26 |  |
